The values that follow come from PMC7116876, “Mechanistic Insights into Regulation of the ALC1 Remodeler by the Nucleosome Acidic Patch” (Cell reports, 2020).

One may read the Kd as the concentration at which binding is half-saturated. Low readings indicate higher affinity, high ones lower affinity.

Some results are limits rather than exact numbers.

Data set [1] has as its target WT/WT nucleosome (Xenopus laevis histone octamer with intact acidic patches on Widom 601 DNA) (Xenopus laevis). The data set can be described thus: cryo-EM structure; biotinylated ALC1 linker peptide at 10-fold molar excess over core nucleosomes (no linker DNA), cross-linked with 0.05% glutaraldehyde, purified on monomeric avidin; 15 mM HEPES pH 7.5, 50 mM NaCl, 1 mM DTT.

Data set [2] concerns the target ALC1^RLS peptide-TAMRA (human). In words: fluorescence polarisation; fluorescence anisotropy; 10 nM TAMRA-labelled peptide, nucleosomes without linker DNA titrated; 30°C; 15 mM HEPES pH 7.5, 1 mM EDTA, 5% glycerol, 1 mM DTT; quadratic fit. (In general: Fluorescence polarisation rises when a labelled molecule tumbles more slowly, as on binding a larger partner.)
Data set [3] deals with WT/WT nucleosome (Xenopus laevis histone octamer with intact acidic patches on Widom 601 DNA) (Xenopus laevis).
Data set [4] shares this target. The source holds these as a separate data set.
Data set [5] relates to T1, ALC1RLS peptide-TAMRA (Homo sapiens).
T1 sequence: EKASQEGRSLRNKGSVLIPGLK
The data set can be described thus: fluorescence anisotropy. To be noted: Fluorescence anisotropy: 15 mM HEPES pH 7.5, 1 mM EDTA, 5% glycerol, 1 mM DTT, 10 nM peptide, 30 C.

As for ALC1 linker peptide-Biotin, the stoichiometry N (peptides per nucleosome) in data set [1] is 2.

“WT/WT nucleosome (Xenopus laevis histone octamer with intact acidic patches on Widom 601 DNA) (complex)” displayed a Kd in data set [2] of 1100 nM.

“ALC1^fl R611A/S612A/R860W (human ALC1 16-879) (from UniProt Q86WJ1 16-879) (enzyme)”: the smFRET, average translocation pause duration on WT/WT nucleosomes with 3 bp of linker DNA; fold increase against ALC1^fl R860W in data set [3] was over 4 fold. Further, in data set [4], the Michaelis constant of remodeling of WT/WT nucleosomes (10 nM); factor of increase against ALC1^fl R860W was 5.3 fold; the maximum rate of remodeling of WT/WT nucleosomes (10 nM); factor of decrease against ALC1^fl R860W came out at 6.4 fold; the nucleosome-stimulated ATPase rate under saturating conditions (Vmax estimated); fold reduction against ALC1^fl R860W was 2 fold; the nucleosome-stimulated ATPase rate, 20 μM remodeler, 2 μM WT/WT nucleosomes; fold reduction against ALC1^fl R860W was determined as 2.5 fold.

WT/WT nucleosome 0-601-0 showed a Kd in data set [5] of 1100 nM.
